Earlier results, collected in publication PMC3957495.

Tests used:
[1] = molecular target: CRF (UniProt P06850)
[2] = molecular target: CRF (UniProt P06850); remark: listed apart in the source
[3] = molecular target: Urocortin 1 (UniProt P55089)
Urocortin 1, sequence (P55089 83-122): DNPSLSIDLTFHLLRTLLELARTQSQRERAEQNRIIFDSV

sCRF2a receptor, sequence (Q60748 20-411): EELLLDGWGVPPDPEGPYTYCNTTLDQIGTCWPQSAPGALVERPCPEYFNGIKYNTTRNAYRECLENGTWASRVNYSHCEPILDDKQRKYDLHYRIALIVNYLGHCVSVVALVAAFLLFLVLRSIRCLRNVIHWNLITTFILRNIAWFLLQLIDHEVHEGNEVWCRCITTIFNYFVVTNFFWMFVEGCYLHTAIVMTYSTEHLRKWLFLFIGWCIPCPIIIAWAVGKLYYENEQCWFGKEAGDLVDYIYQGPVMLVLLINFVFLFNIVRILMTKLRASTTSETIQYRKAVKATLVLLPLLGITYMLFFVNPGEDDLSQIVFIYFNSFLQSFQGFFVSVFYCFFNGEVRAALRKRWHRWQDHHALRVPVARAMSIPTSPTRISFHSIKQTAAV
CRF, sequence (P06850 154-194): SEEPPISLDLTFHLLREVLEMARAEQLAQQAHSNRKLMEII
CRF2a-tr, sequence (P47866 20-411): as the sequence (Q60748 20-411) above, with V10E, T19S, V100I, A146T, I168V, I221V, A241P, V253I, M254I, A349S counted along it

Row | Kd [1] [nM] | Ki [2] [nM] | Ki [3] [nM] | Substance
1 | 12.7 |  |  | CRF2a-tr (from UniProt P47866)
2 |  | 23 | 6.6 | sCRF2a receptor (from UniProt Q60748)
